Measured values published in PMC3513567 (Molecular cell, 2012).

What was measured:
[1] = molecular target: truncated murine LEP-R construct (D1-D5) lacking the two membrane-proximal FnIII domains (murine); test: ITC
[2] = molecular target: T1, extracellular region (domains D1-D7) of murine LEP-R (murine, UniProt P48356 22-839); test: ITC
T1 sequence (looked up): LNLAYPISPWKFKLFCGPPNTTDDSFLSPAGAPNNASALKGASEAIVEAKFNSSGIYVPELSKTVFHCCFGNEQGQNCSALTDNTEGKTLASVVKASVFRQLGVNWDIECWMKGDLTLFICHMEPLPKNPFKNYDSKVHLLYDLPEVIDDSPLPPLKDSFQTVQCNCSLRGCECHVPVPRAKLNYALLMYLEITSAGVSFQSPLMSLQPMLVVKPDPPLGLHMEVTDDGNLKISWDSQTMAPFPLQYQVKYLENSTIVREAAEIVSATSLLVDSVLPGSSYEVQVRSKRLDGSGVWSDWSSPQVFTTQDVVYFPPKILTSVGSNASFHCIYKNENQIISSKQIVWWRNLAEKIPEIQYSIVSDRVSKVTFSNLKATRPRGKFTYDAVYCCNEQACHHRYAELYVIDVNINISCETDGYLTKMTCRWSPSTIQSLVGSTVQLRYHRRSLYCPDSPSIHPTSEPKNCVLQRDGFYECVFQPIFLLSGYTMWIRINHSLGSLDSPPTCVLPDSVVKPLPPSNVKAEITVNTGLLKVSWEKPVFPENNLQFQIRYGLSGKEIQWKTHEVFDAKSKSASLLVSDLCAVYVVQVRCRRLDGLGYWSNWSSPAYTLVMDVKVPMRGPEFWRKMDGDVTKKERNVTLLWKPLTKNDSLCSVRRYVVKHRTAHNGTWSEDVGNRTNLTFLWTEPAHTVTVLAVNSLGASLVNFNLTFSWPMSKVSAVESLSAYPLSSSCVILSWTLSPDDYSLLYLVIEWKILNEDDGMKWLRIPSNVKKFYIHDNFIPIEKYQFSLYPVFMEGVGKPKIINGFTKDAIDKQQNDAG

[3] = molecular target: T2, LEP-R[D1-D7] construct bearing the IgD mutation L370A (murine, UniProt P48356 22-839, L370A); test: negative-stain single-particle electron microscopy
T2 sequence (looked up): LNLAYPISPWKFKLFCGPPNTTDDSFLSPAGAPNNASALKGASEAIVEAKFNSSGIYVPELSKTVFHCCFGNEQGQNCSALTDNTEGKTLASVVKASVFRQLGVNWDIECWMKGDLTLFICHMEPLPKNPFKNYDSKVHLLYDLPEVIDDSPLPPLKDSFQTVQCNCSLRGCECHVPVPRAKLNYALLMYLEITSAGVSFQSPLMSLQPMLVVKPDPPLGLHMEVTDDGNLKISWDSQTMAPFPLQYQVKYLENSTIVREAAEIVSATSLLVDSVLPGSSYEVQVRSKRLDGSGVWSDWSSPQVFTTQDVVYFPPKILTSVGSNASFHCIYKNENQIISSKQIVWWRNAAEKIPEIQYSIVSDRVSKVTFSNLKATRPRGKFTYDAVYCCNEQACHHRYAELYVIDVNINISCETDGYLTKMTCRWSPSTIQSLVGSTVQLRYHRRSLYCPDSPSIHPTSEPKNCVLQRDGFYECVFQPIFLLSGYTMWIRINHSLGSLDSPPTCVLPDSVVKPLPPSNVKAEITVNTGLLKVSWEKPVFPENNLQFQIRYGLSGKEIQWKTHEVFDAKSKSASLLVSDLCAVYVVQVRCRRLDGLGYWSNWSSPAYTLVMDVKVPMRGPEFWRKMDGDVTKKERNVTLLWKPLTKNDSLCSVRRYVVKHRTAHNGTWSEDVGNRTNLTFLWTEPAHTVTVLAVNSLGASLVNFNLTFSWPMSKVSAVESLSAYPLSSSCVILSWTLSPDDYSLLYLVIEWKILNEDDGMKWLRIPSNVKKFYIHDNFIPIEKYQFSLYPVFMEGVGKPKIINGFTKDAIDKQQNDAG

Chain of truncated murine LEP-R construct (D1-D5) lacking the two membrane-proximal FnIII domains (murine) (P48356 whole entry, the tested form may be a part): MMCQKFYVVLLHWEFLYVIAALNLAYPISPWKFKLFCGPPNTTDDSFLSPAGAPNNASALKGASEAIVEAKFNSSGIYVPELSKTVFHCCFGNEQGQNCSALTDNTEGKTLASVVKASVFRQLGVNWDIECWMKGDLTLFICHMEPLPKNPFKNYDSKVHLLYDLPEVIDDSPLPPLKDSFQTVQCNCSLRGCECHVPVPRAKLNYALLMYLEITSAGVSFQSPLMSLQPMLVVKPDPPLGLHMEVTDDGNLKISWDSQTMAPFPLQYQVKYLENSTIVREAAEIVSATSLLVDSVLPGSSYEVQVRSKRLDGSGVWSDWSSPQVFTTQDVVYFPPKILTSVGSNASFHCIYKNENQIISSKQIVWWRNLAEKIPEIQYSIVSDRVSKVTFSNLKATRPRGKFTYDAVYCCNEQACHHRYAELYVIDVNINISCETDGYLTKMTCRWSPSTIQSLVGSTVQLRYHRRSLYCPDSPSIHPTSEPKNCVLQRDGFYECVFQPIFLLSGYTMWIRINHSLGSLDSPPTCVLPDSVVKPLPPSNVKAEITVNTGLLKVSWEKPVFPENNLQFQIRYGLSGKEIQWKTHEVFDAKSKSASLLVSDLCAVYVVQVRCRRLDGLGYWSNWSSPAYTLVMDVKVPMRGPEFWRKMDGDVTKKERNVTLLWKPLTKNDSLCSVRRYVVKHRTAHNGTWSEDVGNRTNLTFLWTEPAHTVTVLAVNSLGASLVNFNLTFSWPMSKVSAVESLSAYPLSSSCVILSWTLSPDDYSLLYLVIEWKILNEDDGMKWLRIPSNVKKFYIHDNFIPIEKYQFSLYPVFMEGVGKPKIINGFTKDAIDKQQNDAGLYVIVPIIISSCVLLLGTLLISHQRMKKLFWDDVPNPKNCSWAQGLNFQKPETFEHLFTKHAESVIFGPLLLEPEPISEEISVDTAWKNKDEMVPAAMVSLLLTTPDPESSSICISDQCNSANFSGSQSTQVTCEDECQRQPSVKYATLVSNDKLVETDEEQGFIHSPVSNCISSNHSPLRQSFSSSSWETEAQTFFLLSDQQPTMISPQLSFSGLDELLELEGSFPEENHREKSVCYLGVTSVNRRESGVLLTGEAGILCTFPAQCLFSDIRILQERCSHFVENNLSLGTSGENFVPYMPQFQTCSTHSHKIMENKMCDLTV

Molecule “recombinant murine leptin (from UniProt P41160 22-167) (ligand)” has a Kd [1] of 17 nM and a stoichiometry N (receptor:ligand) [1] of 1.

B1: recombinant murine leptin (ligand, UniProt P41160 22-167, looked up)
chain: VPIQKVQDDTKTLIKTIVTRINDISHTQSVSAKQRVTGLDFIPGLHPILSLSKMDQTLAVYQQVLTSLPSQNVLQIANDLENLRDLLHLLAFSKSCSLPQTSGLQKPESLDGVLEASLYSTEVVALSRLQGSLQDILQQLDVSPEC
In the case of B1, the “stoichiometry N” value [2] is reported as ~1 receptor:ligand and the binding result [3] is reported as “binds”.
